Results from PMC9800739, “Epigenetic drugs in somatostatin type 2 receptor radionuclide theranostics and radiation transcriptomics in mouse pheochromocytoma models” (Theranostics, 2023).

What was measured:
MPC tumors [1] = assay type: in vivo, mouse; conditions: mouse, in vivo
Experimental: (§1) During anesthesia, animals were continuously warmed at 37°C. […] Animals were sacrificed using CO2 inhalation and cervical dislocation.
(§2) 107 (30%), muscle (0%), kidneys (25%), and liver (35%).
(§3) 116 attenuation. Images were post-processed and analyzed using ROVER (ABX). Three-
118 kidneys (15%), and liver (25%). […]

[2] = system: midgut neuroendocrine liver metastases; conditions: after a short course of vorinostat; cited from earlier work
MTT tumors = test: SPECT imaging of [177Lu]Lu-DOTA-TATE uptake in MTT allograft mice; conditions: mouse, in vivo
Experimental: as §1
(§4) Small animal single-photon emission computed tomography (SPECT) was initiated 22‒26 hours after radiotracer injection using the nanoSPECT/CT scanner (Mediso Medical Imaging Systems). […] Activity concentration in tissues was determined and reported as AV mean (VOI-averaged volume activity AV tissue 24h, MBq/mL). Details on quantitative SPECT image analysis are provided in Supplemental Information 1.5.
as §2, §3
(§5) 118 kidneys (15%), and liver (25%).
(§6) 119 1.6 Sstr2 promoter methylation analysis
(§7) 122 Bisulfite Kit (Qiagen, Hilden, Germany). Bisulfite-converted DNA was amplified using a
(§8) 125 Switzerland). Electropherograms were compared to PCR products amplified from bisulfite-
(§9) 127 an unmethylated 900bp-DNA fragment. The latter was generated by amplification of genomic
(§10) 129 of primers are provided in (Table S 2).

MPC tumors [3] = test: SPECT imaging of [177Lu]Lu-DOTA-TATE uptake in MPC allograft mice; conditions: mouse, in vivo
Experimental: as §1, §4, §2, §3, §5, §6, §7
Amplicon size (195bp) was confirmed
as §8, §9, §10

## C[C@@H](O)[C@H](NC(=O)[C@@H]1CSSC[C@H](NC(=O)[C@@H](Cc2ccccc2)NC(=O)CN2CCN(CC(=O)O)CCN(CC(=O)O)CCN(CC(=O)O)CC2)C(=O)N[C@@H](Cc2ccc(O)cc2)C(=O)N[C@H](Cc2c[nH]c3ccccc23)C(=O)N[C@@H](CCCCN)C(=O)N[C@@H]([C@@H](C)O)C(=O)N1)C(=O)O [[^64Cu]Cu-DOTA-TATE, metal not drawn]
MPC tumors [1]
  SUVmean plateau, MPC compared to MTT allografts: 14 fold

## O=C(CCCCCCC(=O)Nc1ccccc1)NO [vorinostat]
[2]
  increase in [68Ga]Ga-DOTA-TATE uptake in tumors: 10%

## C[C@@H](O)[C@H](NC(=O)[C@@H]1CSSC[C@H](NC(=O)[C@@H](Cc2ccccc2)NC(=O)CN2CCN(CC(=O)O)CCN(CC(=O)O)CCN(CC(=O)O)CC2)C(=O)N[C@@H](Cc2ccc(O)cc2)C(=O)N[C@H](Cc2c[nH]c3ccccc23)C(=O)N[C@@H](CCCCN)C(=O)N[C@@H]([C@@H](C)O)C(=O)N1)C(=O)O [[^177Lu]Lu-DOTA-TATE, metal not drawn]
MTT tumors
  AV max 24h tumor, sub-cohort: 1.19 ± 0.10 MBq/mL
  mean tumor AV 24 h (single animal shown in image): 0.59 MBq/mL
MPC tumors [3]
  AV max 24h tumor, sub-cohort: 9.52 ± 0.58 MBq/mL
  AV mean 24h, MPC compared to MTT allograft mice: 8 fold
  mean tumor AV 24 h (single animal shown in image): 4.14 MBq/mL
